Legend:
[1] = tested on: U87MG; assay: Annexin V/PI apoptosis staining in U87MG; format: cell-based, human; details: GL equivalent 50 µM, 24 h (control 1.40%)
Experimental: Fig. S10. Non-apoptotic U87MG growth inhibition of Lf-GL. Annexin V-DY-634 / PI apoptosis staining to detect the apoptosis and necrosis in the Control, GL, Lf, and Lf-GL treated group at all GL equivalent concentration of 50 µM for 24 h. However, the cell population of annexin V (+)/PI (+) in the Lf-GL treatment group was 0.28%, which was even lower level to 1.40% in the Control group

[2] = tested on: orthotopic GBM (U87MG) mice model; assay: Nissl staining: GBM/normal brain ratio; format: in vivo, Balb/c nude mice; details: daily i.v. GL equivalent 50 mg kg^−1, 14 days (control 37.5 ± 2.3)
From the text: (§1) After two weeks, mice were sacrificed, and the brains were harvested and fixed with paraformaldehyde (4%). Then, tissue processing was automatically conducted using a Leica TP1020 semi-enclosed Benchtop Tissue Processor (Leica Biosystems, Wetzlar, Hesse, Germany), followed by embedding in paraffin blocks. Paraffin blocks were sliced into 5 μm thick slices using a Leica RM2145 Microtome (Leica Biosystems). Nissl staining was used to stain brain tissue slides with pre-warmed 0.1% Cresyl Violet Stain Solution (Abcam). TUNEL assays were conducted following the manufacturer’s instructions. For immunofluorescence staining; anti-HMGB1 antibody (Abcam), anti-Ki67 antibody (Abcam), anti-CD31 antibody (Abcam), and anti-VEGF antibody (Abcam) were used as primary antibodies, and goat anti-rabbit IgG-H&L Alexa Fluor 488 and goat anti-rabbit IgG H&L Alexa Fluor 647 were used as secondary antibodies, followed by DAPI mounting.

[3] = tested on: U87MG human glioma cell line; assay: Cell viability test (CCK-8) in U87MG; format: cell-based; details: 50 μM GL equivalent
Experimental: Cell viability was determined using a cell counting kit-8 (CCK-8). U87MG and HUVECs (seeding density: 0.75 × 10^4 cells per well) in 96-well culture plates were treated with GL, Lf, or Lf-GL (25 to 200 × 10^–6 M of GL equivalent concentration) and were incubated for different periods of time (24, 48, and 72 h). After washing with PBS, they were treated with a cell culture medium containing a CCK-8 assay kit (Abbkine) and were incubated at 37 °C and 5% CO2 for 2 h. Then, absorbance was measured at 450 nm in a micro-plate reader (VLBL00D0, Thermo Fisher Scientific). Results were quantified using Sigma Plot (Systat Software, USA). To determine the effect of extracellular HMGB1 in GBM and endothelial cell proliferation, U87MG and HUVECs were seeded in 96-well culture plates (seeding density: 0.75 × 10^4 cells per well) and GL, Lf, or Lf-GL (50 × 10^–6 M GL equivalent concentration) were added to cells with or without HMGB1 protein (U87MG: 0.1 μg mL^−1, and HUVEC: 1 μg mL^−1). Cells were incubated for different periods of time (24, 48, and 72 h).

[4] = tested on: HMGB1; assay: HMGB1 ELISA of U87MG culture medium; format: cell-based, human; details: 50 μM GL equivalent, 48 h (control 131.8 ± 11.4)
Experimental: U87MG cells were seeded in 100 mm-cell culture dishes (2.2 × 10^6 cells per dish) and treated with GL, Lf, or Lf-GL (50 × 10^–6 M GL equivalent concentration) for 48 h. After incubating, cells were collected using a cell scrapper and were centrifuged for 3 min at 150 × g. Supernatant was collected as cell culture medium, and pellets were washed with cold PBS twice and transferred into a microcentrifuge tube. Tubes were centrifuged, and then pellets were resuspended in 500 μL 1X hypotonic buffer and incubated on ice. Then, 25 μL of NP40 was added and the mixture was agitated using a vortex mixer at the highest setting. Homogenates were centrifuged for 10 min at 842 × g at 4℃. Supernatant was collected as the cytoplasmic fraction, and pellets were resuspended in cell extraction buffer (50 μL) and were incubated for 30 min on ice with vortexing at 10 min intervals. Then, homogenates were centrifuged for 30 min at 14,000 × g at 4℃. Supernatant was collected as the nuclear fraction. The amount of HMGB1 in the samples was measured using a HMGB1 ELISA kit (Abbkine), and absorbance was measured at 450 nm in a micro-plate reader. A DNA assay (Quant-iT™ dsDNA Assay Kit, Invitrogen) was also conducted to express HMGB1 concentrations in equivalent amounts of DNA.

[5] = tested on: HUVEC; assay: HUVEC co-cultured with U87MG: CCK-8 at basal chamber; format: cell-based, human; details: HUVEC/U87MG Transwell co-culture, 100 μM GL equivalent, 24 h
Experimental: To evaluate the inhibitory effect of Lf-GL on neovascularization in the tumor microenvironment in vitro, U87MG cells were seeded in the Transwell® insert chambers that were 6.5 mm in diameter and had 0.4 μm pore sizes (seeding density: 2.5 × 10^4 cells per well, Corning). HUVECs were seeded in the Transwell basal chamber (seeding density: 5.0 × 10^4 cells per well). GL, Lf, or Lf-GL (100 × 10^–6 M of GL equivalent concentration) were added to the insert chamber, and cells were incubated for 24 h. CCK-8 assay and HMGB1 ELISA were conducted at the basal chamber.

[6] = tested on: CD31; assay: Immunofluorescence staining of CD31 in GBM tissue; format: in vivo, Balb/c nude mice; details: GBM mice, daily i.v., 14 days (control MFI 14.7 ± 1.4)
From the text: as §1

[7] = In vivo fluorescence tracer image (brain); set-up: species or system Balb/c mice; details: FITC-tagged
Experimental: For the fluorescence tracer images, Balb/c mice were administered either FITC-tagged GL or FITC-tagged Lf-GL at a GL equivalent concentration of 50 mg kg^−1 body weight via tail vein injection. After 1, 10, 30, and 60 min, the experimental mice were sacrificed, and the organs were extracted. The fluorescence signals of FITC-tagged GL or FITC-tagged Lf-GL in organs were imaged using an in vivo imaging system (FOBI, CELLGENTEK, South Korea). The exposure time was fixed to 200 s for analyzing fluorescent signals from tissues. The quantified fluorescence signal of the brain at each time point was measured in terms of intensity units (IU, Intensity Min^−1 Gain^−1).
Fig. S15. Fluorescence tracer images of intravenously injected GL and Lf-GL. Balb/c mice were administered either FITC-tagged GL or FITC-tagged Lf-GL at a GL equivalent concentration of 50 mg kg^-1 body weight via tail vein injection. The fluorescence signals of FITC-tagged GL or FITC-tagged Lf-GL in organs were imaged using an in vivo imaging system (FOBI, CELLGENTEK, South Korea). The exposure time was fixed to 200 sec for analyzing fluorescent signals from tissues. The quantified fluorescence signal of brain at each time point was measured with Intensity Unit (IU, Intensity Min^-1 Gain^-1).

B1: Lf-GL: lactoferrin-glycyrrhizin conjugate with ligation ratio Lf:GL 1:10, used in further experiments (conjugate, UniProt P24627 20-708, looked up)
Lactotransferrin: APRKNVRWCTISQPEWFKCRRWQWRMKKLGAPSITCVRRAFALECIRAIAEKKADAVTLDGGMVFEAGRDPYKLRPVAAEIYGTKESPQTHYYAVAVVKKGSNFQLDQLQGRKSCHTGLGRSAGWIIPMGILRPYLSWTESLEPLQGAVAKFFSASCVPCIDRQAYPNLCQLCKGEGENQCACSSREPYFGYSGAFKCLQDGAGDVAFVKETTVFENLPEKADRDQYELLCLNNSRAPVDAFKECHLAQVPSHAVVARSVDGKEDLIWKLLSKAQEKFGKNKSRSFQLFGSPPGQRDLLFKDSALGFLRIPSKVDSALYLGSRYLTTLKNLRETAEEVKARYTRVVWCAVGPEEQKKCQQWSQQSGQNVTCATASTTDDCIVLVLKGEADALNLDGGYIYTAGKCGLVPVLAENRKSSKHSSLDCVLRPTEGYLAVAVVKKANEGLTWNSLKDKKSCHTAVDRTAGWNIPMGLIVNQTGSCAFDEFFSQSCAPGADPKSRLCALCAGDDQGLDKCVPNSKEKYYGYTGAFRCLAEDVGDVAFVKNDTVWENTNGESTADWAKNLNREDFRLLCLDGTRKPVTEAQSCHLAVAPNHAVVSRSDRAAHVKQVLLHQQALFGKNGKNCPDKFCLFKSETKNLLFNDNTECLAKLGGRPTYEEYLGTEYVTAIANLKKCSTSPLLEACAFLTR
modifications: glycyrrhizin conjugate
Annexin V (+)/PI (+) cell population [1]: 0.28% | GBM/normal brain ratio [2]: 8.9 ± 3.2 | Growth rate ([3]; 72 h): 68.7 ± 15.9% | Number of cells, % of the original count ([3]; after 48 h treatment): 44.1 ± 6.3% | HMGB1 released into the medium of U87MG cells [4]: 74.0 ± 0.9 ng/mL | Reduction of endothelial cell proliferation [5]: 13.0 ± 0.7% | Decrease of MFI of CD31 [6]: sevenfold | Time up to which fluorescence signal was detected in the brain ([7]; i.v. GL equivalent 50 mg kg^−1): up to 60 min | Fluorescence intensity in the brain ([7]; i.v. GL equivalent 50 mg kg^−1, 10 min after injection): 15,234 I.U.
